Broadly, the Kd is the constant that tells how readily two partners part at equilibrium. A high value points to lower affinity. What is called EC50 (read off the curve) is the concentration giving half of the maximal effect. The low end stands for an effect from little substance, the high end for a need for much substance.

3 molecules from patent US20170233480A1 (DEVELOPMENT CENTER FOR BIOTECHNOLOGY, published 2017) can be followed below.

The target in one experiment is mouse VEGFR-2 (mouse, UniProt P35918 20-762). Kind of experiment: ELISA, plate coated with mouse VEGFR-2, HRP-anti-human IgG, OD450-650; bar chart of two runs (1st, 2nd); antibody concentration not given. As for the experimental part: (§1) An ELSA plate was coated with 100 μL per well of human VEGFR-2, mouse VEGFR2, human VEGFR1 or human VEGFR3 overnight at 4° C., and then rinsed 3 times with PBS and blocked with 300 μL per well of 5% MPBS for 2 hr at 37° C. The wells were rinsed 3 times with PBS, and 100 μL of anti-VEGFR2 antibody, 2 fold serial dilutions, was added and incubated for 90 min at 37° C. The test solution was discarded and washed 3 times with PBS. Appropriate dilution of HRP-anti-Human IgG antibody in 5% MPBS (1:10000) was added and incubated for 60 min at 37° C., and the wells were washed 3 times with PBS. The wells were developed with 100 μL of substrate solution TMB and the reactions were terminated by adding 50 μL of 1 M sulfuric acid. The color turned yellow and the OD at 650 nm and at 450 nm was assayed.
For orientation: An ELISA detects its analyte on a solid surface through an enzyme-linked reagent.

For experiment [1], the target named is T1, human VEGFR-2 (domains 1 to 7) (human, UniProt P35968 20-764).
T1 construct: The immunogen was VEGFR2-Fc-His and panning used VEGFR2-His; also called R2 D1-7; KDR
In words: kinetic analysis with Rmax in RU, VEGFR-2 (domains 1 to 7) as analyte; method not named.

Another experiment deals with T2, human VEGFR-3 (human, UniProt P35916 25-775, limits assumed).
T2 construct: also called flt-4
T2 sequence (looked up): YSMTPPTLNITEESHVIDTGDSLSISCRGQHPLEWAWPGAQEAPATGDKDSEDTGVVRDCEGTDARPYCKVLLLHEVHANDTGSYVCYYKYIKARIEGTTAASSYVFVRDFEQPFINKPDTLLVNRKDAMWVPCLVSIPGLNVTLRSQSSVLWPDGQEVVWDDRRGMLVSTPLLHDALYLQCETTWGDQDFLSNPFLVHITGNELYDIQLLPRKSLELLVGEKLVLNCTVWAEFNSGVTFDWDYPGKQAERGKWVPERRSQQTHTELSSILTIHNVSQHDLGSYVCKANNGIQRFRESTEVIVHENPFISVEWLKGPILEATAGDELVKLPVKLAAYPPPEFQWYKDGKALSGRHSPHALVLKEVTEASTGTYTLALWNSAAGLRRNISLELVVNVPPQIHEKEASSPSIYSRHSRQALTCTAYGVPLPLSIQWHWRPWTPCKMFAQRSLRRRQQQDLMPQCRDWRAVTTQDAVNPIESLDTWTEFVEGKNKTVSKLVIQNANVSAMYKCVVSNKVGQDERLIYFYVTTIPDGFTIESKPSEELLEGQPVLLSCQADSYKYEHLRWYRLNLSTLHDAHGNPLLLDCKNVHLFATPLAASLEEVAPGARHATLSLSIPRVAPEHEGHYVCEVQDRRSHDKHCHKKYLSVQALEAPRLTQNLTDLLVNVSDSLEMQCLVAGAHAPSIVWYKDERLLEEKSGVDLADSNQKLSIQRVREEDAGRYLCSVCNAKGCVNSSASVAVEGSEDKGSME
In words: ELISA, plate coated with hVEGFR3 (0.1 µg/mL), antibody titration, OD450-650. As to the method: as §1

For a further experiment, the target named is T3, human VEGFR-1 (human, UniProt P17948 27-758, limits assumed).
T3 construct: also called flt-1
In words: ELISA, plate coated with hVEGFR1 (0.1 µg/mL), antibody titration, OD450-650. As to the method: as §1

Experiment [2] concerns the target T1, human VEGFR-2 (domains 1 to 7). Kind of experiment: ELISA on VEGFR-2 D1-7 and point mutants mut.1 to mut.10, antibody titration 6.86E-05 to 0.15 ug/ml, OD450.
Experiment [3] shares this target. Kind of experiment: ELISA and BIAcore; no numbers given.

T1 sequence (P35968 20-764 Q472H limits assumed): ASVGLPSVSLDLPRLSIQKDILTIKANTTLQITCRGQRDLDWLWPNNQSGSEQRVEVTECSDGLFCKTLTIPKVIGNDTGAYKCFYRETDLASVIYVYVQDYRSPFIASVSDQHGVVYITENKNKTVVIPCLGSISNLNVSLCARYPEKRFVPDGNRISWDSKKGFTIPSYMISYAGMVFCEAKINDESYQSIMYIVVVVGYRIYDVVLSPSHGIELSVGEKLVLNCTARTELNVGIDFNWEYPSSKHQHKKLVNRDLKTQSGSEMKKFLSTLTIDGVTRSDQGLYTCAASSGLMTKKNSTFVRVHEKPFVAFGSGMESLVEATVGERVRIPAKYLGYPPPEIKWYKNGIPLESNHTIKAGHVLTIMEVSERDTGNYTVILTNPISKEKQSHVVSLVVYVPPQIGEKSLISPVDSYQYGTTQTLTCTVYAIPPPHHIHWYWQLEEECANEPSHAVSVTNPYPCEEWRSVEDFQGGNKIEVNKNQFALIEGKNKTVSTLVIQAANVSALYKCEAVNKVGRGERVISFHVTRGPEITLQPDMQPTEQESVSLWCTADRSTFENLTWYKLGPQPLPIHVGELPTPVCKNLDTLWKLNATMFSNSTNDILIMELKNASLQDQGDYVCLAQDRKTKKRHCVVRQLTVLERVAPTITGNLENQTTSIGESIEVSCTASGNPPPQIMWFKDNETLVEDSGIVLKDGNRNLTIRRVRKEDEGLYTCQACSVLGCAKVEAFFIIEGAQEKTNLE
Chain of mouse VEGFR-2 (P35918 20-762 limits assumed): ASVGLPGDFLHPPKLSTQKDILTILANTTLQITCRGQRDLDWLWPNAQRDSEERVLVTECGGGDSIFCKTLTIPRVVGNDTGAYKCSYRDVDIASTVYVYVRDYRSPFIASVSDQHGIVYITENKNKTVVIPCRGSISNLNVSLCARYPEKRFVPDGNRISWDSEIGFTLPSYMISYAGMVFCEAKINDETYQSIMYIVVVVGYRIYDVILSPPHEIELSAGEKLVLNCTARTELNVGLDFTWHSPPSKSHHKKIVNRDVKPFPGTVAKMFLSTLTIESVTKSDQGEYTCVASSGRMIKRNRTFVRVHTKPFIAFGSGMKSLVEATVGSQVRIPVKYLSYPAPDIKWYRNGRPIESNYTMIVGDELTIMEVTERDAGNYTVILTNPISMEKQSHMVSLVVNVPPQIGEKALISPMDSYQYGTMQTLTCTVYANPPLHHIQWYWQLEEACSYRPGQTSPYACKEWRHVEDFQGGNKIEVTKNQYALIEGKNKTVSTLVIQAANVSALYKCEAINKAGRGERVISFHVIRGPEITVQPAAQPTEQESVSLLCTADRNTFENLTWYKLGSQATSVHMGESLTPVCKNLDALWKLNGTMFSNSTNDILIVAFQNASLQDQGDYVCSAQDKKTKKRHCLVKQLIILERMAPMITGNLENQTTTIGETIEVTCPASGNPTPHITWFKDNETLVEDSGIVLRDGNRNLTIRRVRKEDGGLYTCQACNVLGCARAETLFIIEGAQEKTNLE
T3 sequence (P17948 27-758 limits assumed): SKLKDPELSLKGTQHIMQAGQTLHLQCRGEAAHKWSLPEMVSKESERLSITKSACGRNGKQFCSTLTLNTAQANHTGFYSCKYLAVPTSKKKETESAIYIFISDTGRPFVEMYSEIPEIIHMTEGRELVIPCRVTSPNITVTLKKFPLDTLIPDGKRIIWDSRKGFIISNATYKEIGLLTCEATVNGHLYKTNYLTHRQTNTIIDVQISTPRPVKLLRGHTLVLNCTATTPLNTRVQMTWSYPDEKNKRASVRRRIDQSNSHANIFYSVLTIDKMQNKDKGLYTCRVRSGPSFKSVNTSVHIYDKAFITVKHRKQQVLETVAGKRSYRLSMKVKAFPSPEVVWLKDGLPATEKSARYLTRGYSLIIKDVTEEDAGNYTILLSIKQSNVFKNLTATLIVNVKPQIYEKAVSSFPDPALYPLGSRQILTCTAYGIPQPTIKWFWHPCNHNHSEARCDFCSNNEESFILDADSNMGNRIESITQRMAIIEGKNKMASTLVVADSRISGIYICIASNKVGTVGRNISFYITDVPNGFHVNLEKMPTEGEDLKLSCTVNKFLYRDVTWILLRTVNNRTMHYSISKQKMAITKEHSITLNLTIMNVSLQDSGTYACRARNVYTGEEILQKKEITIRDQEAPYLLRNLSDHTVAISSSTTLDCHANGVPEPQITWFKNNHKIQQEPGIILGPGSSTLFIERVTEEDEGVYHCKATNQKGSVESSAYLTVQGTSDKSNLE

B1: 12A6 (antibody, V domains shown)
VH: QVQLQQSGPELVKPGASVKVSCKASGYSFTDYSMYWVKQSHGKSLEWIGYIDPYNDDTSYKQKFKGKATLTVDKSSSTAFMHLNSLTSEDSAVYYCAKGYADAMDYWGQGTSVTVSS
VL: DIQMIQSPSSLSASLGDTITITCHASQNINVWLSWYQQKPGNIPKLLIYKASNLHTGVPSRFSGSGSGTGFTLTISSLQPEDIATYYCQQGQSYPLTFGAGTKLELKR
notes: Expressed as a full-length antibody in FreeStyle 293 cells and detected with anti-human IgG
Turning to B1, in the experiment with mouse VEGFR-2, the binding result is “no binding”. Binding in experiment [1] was characterised by a dissociation constant (Kd) of 4.6 nM.

B2: 322A6 (antibody, V domains shown)
VH: EVQLQQSGPQLVRPGASAKISCKASGYAFTTYWMHWVKQRPGQGLEWIGMIDFSDSETKLNQRFKGKATLTVDKSSSTAYMQLSSPTSEDSAVYYCARDVRGNFDVWGAGTTVTVSS
VL: DIVLTQSPASLAVSLGQRATISCRASKSVSTSGYSYMHWYQQKPGQPPKLLIYLASNLESGVPARFSGSGSGTDFTLNIHPVEEEDAATYYCQHSRELPWTFGGGTKLEIKR
notes: Expressed as a full-length antibody in FreeStyle 293 cells from mouse-derived VH and VL; It was detected with anti-human IgG and anti-human kappa; also called 322A6 (45); c45
As to B2, the results for the binding result in the experiment with mouse VEGFR-2, in the experiment with human VEGFR-3 and in the experiment with human VEGFR-1 were “binds”, “no binding (tested: about 1.3e-7 M)” and “no binding (tested: 20 µg/mL (about 1.3e-7 M))”, respectively. The same molecule had a Kd in experiment [1] of 0.673 nM. For the same molecule, the concentration giving a half-maximal response (EC50 (read off the curve)) in experiment [2] was about 5 ng/mL.

B3: Hu322B1HdH (antibody, V domains shown)
VH: QVQLVQSGAEVKKPGASVKVSCKASGYAFTTYWMHWVRQAPGQGLEWIGMIDFSDSETKLNQRFKGKATLTVDKSTSTAYMELSSLRSEDTAVYYCARDVRGNFDVWGQGTLVTVSS
VL: DIQMTQSPSSLSASVGDRVTITCRASKSVSTSGYSYMHWYQQKPGKAPKLLIYLASNLESGVPSRFSGSGSGTDFTLTISSLQPEDFATYYCQHSRELPWTFGQGTKVEIKR
notes: Humanized 322A6; The expression vector encodes the human kappa light-chain and human IgG1 C regions; also called 322A6(HuB1-Hd); combination clone of heavy chain (HuB1) and light chain (Hd) with 7 amino acid back mutation (7+0)
As for B3, the binding result in experiment [3] is on record as “binds”.
